Measurements: PMC9397949

Biological target: ACE-2 receptor on the surface of Vero E6 cells (African green monkey (endogenous in Vero E6))
Test: flow cytometry on cells; about 10^6 Vero-E6 cells blocked with FACS buffer and 5% normal mouse serum, incubated with RBD (8 ug/mL in the methods; different concentrations in the results) 2 h at 37 C; detected with rabbit monoclonal anti-S1 and Alexa Fluor 488 anti-rabbit IgG; percent of positive cells

Substance | percent of cells bound [%]
commercially available recombinant RBD expressed in insect cells (Cat No. Z03479, GenScript) (from UniProt P0DTC2) (domain or fragment) | 78
Recombinant SARS-CoV-2 Spike RBD (Pro330-Ser530), purified (from UniProt P0DTC2 330-530) (domain or fragment) | 60
